Experiment: yeast display, Sf9 membrane polyspecificity reagent, FACS + sequencing; frameworks hold sequencing errors
How it was run: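 Polyreactivity labels are assigned by the sorting gate from which each nanobody was recovered. The gates were low and high (top ~1%), set on anti-HA fluorescence for expression and streptavidin fluorescence for reagent binding. Before sorting, galactose-induced (36–48 hours) yeast display cells were stained for 1 hour at 4 °C with 10% biotinylated, detergent-solubilized Sf9 membrane reagent.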

| Sequence | polyreactivity (PSR sort gate) |
| --- | --- |
| QVQLVESGGGLVQAGGSLRLTCAASGSTFTGYAMGWSIQAPGKERELVAGITGSGGSTYYADSVKGRFTISRDNAKNTVYLQMNSLKPEDTAVYYCNAVHWGGTYWGLDYWGQGTQVTVSS | low polyreactivity |
| QVQLVESGGGLVQAGGSLRLTCAASGSTFTVNGMGWYRQAPGKERELVASITWSGGSTYYADSVKGRFTISRDNAKITVYLQMNSLKPEDTAVYYCAADEKLYITGYDYWGQGTQVTVSS | low polyreactivity |
| QVQLVESGGGLVQAGGSLRLTCAASGSTFVPYVMGWYRQAPGKERELVAVITWTGGSTYYADSVKGRFTISRDNAKNTVYLQMNSLKPEDTAVYYCAAEYSPWFYFEQYDYWGQGTQVTVSS | low polyreactivity |
| QVQLVESGGGLVQAGGSLRLTCAASGSTFVWYGMGWYRQAPGKEREFVAAISTSGGRTYYADSVKGRFTISRDNAKNTVYLQMNSLKPEDTAVYYCATRPYFTYRWYDYWGQGTQVTVSS | high polyreactivity |
| QVQLVESGGGLVQAGGSLRLTCAASGSTFWSNSMGWYRQAPGKERELVAAISSRGGSTYYADSVKGRFTISRDNAMNTVYLQMNSLKPEDTAVYYCAARSKRLAHDYWGQGTQVTVSS | high polyreactivity |
| QVQLVESGGGLVQAGGSLRLTCAASGSTFYSYVMGWYRQAPGKERELVAAIDYSGDSTYYADSVKGRFTISRDNAKNTVYLQMNSLKPEDTAVYYCAKDGVWYYSGTGMDYWGHGTQVTVSS | low polyreactivity |
| QVQLVESGGGLVQAGGSLRLTCAASGSTLWYYAMGWYRQAPGKERELVADITSSGNTNYADSVKGRFTISRDNAKNTVYLQMNSLKPEDTAVYYCAADSANYQWYLSWQKDDYWGQGTQVTVSS | low polyreactivity |
| QVQLVESGGGLVQAGGSLRLTCAASGTIFVRLDMGWYRQAPGNEREFVATIGSGSSTYYADSVKGSFTISRDNVKNTVYLQMNSLKPEDTAVYYCAVSAAEQSRHYYWDQGTQVTVSS | low polyreactivity |
| QVQLVESGGGLVQAGGSLRLTCAASGYIFRLNAMGWYRQAPGKEMELVAGISPGGRTNYADSVKGRFTISRDNAKNTVNLQMNSLKPEDTAVYYCAAAWNTAYWVGSDSLGGGYWGLGTQVTVSS | low polyreactivity |
| QVQLVESGGGLVQAGGSLRLTCAASGYTLSVNAKGWSRQAPGKEMDLVATNDFGGGSTYYADSVKGRFTISRDNAKNTVYLQMNSLKREDTAVYYCATDGGAAWGRYYWDYGYWGQGTQVTVSS | low polyreactivity |
| QVQLVESGGGLVQAGGSLRLTCDASGGIFAVNVMGWYRQAPWKERELVAAITSTGSTYYADSVKGRFTISRDNAKNTVYLQMNSLTPEDTAVYYCAADYVYYDSYDDTVFGYDYWGQGTQVTVSS | high polyreactivity |
| QVQLVESGGGLVQAGGSLRLTCDASGSIFSVYAMGWYRQAPGKERELVAAITSSGGITYYADSVKGRFTISRDNSKNTVYLQMNSLKPEDTAVYYCATDRVLHYWVLSMDYWGQGTQVTVSS | low polyreactivity |
| QVQLVESGGGLVQAGGSLRLTCDASGSIIRLYAMVWYRQAPGKERELVDAISYNSGTTYYADSVKGRFTISRDNAKNTVYLQMNSLKPADTAVYYCAARRYYNYDWRQGTQVTVSS | high polyreactivity |
| QVQLVESGGGLVQAGGSLRLTCPASGGIFYDYSMVWYRQAPGKERQLVAAITRSGDSTYYADSVKGRFTISRDNAKNTVYLQMNSLKPEDTAVYYCAADIWSSDYEEFYYWVQGTQVTVSS | low polyreactivity |
| QVQLVESGGGLVQAGGSLRLTSAASGFTFYPYAMGWYRQATGKEMELVAAINSGGSTYYADSVKGRFTISRDNAKNSVYLQMNSLKPEDTAVYYCAAYGKRGAVAFYYWGQGTQVTVSS | high polyreactivity |
| QVQLVESGGGLVQAGGSLRLTSAASGRIFYNYAIGWYRQAPGKERELVAAISSSGGSTYYADSVKGRFTISRDNAKNTVYVQMNSLKPEDTAVYYCAAYSYGLYYTYDYWGQGTQVTVSS | high polyreactivity |
| QVQLVESGGGLVQAGGSLRLTSAASGRTFGTNPMGWYRQETGKERELVDAISRRGGSTYYADSVKARFTISRDNAKNTVNLQMNSLKPEDTAVYYCAKTIGLKHEDEYWGQGTQVTVSS | low polyreactivity |
| QVQLVESGGGLVQAGGSLRLTSAASGSIFQNYAMGWYRQAPGKERQLVAVIDDSGGITYYADSVKGRFTISRDNAKNTVYLEMNSLKPEDTAVYYCARNVNAKKVLGGFDSWGQGTQVTVSS | low polyreactivity |
| QVQLVESGGGLVQAGGSLRLTSAGSGRIFDYNAMGCYRQAPGKERELVAAITYSGGSTYYADSVKGRFTISRDNAKNTVYLQMNSLKPEDTAVYYCAAPDPYYHYRYPWQSRYDYNYWGQGTQVTVSS | low polyreactivity |
| QVQLVESGGGLVQAGGSLRLTSAGSGRIFVPYAMGCYRQAPGKERELVATITFGGGRTYYADSVKGRFTISRDNAKTTVFLQMNSLKPEDTAVYYCNAEGWYSVEYDYWGQGTQVTVSS | low polyreactivity |
| QVQLVESGGGLVQAGGSLRLTWAASGFILGYYAMGWYRQAPGKERELLPGISRSGGSTYYADSVKGRYTISRDNAKNTVYLQMNSLKPEDTSVYYCAKYPPYYTAYGWKYVYWGQGTQVTLSS | high polyreactivity |
| QVQLVESGGGLVQAGGSLRSSCAASGSIFQYYALGWYRQAPGNERELVAAISSGGRTNYADSVKGRFTISRDNAKNTVYLQMNSLKPEDTAVYYCAAARYYYQVYRWEYDYWGQGTQVTVSS | high polyreactivity |

| Sequence | polyreactivity (PSR sort gate) |
| --- | --- |
| QVQLVESGGGLVQAGGSLRVSCAASGFTFDYYAMGWYRQAPGKEWEFVAAISSRGDDTYYADSVKGRFTISRDNAKNTVYLQMNSLKPEDTAVYYCAKVWRYGRYEYGYWGHGTQVTVSS | high polyreactivity |
| QVQLVESGGGLVQAGGSLRVSCAASGFTFGYYGMGWYRQAPGKERELVAAISWSGGSTYYADSVKGRFTISRDNAKYTVYLQMNSLKPEVTAVYYCNADYAGFYQRRYIEDDYWGQGTQVTVSS | low polyreactivity |
| QVQLVESGGGLVQAGGSLRVSCAASGFTFYQYGMGWYRQAPGKERELVATSTSGGRTNYADSVKGRFTISRDNAKNTVYLQMNSLKPEDTAVYYCNKLPYYPRVGRIGRYYYWGQGTQVTVSS | high polyreactivity |
| QVQLVESGGGLVQAGGSLRVSCAASGINFDYYVMGWYRQAPGKERELVAAISRSGDRTNYADSVKGRFTSSRDHEKYTVFLLMNSLKPEDTAVYYCAARVRIRGGGYDYWGQGTQVTVSS | high polyreactivity |
| QVQLVESGGGLVQAGGSLRVSCAASGNTFGPYAMGWYRQAPGKERELVAAISSGGSTNYADSVKGRFTISRDNAKNTVYLQMNSLKPEDTAVYYCARDAFSGSDFSYASIEYDYWGQGTQVTVSS | low polyreactivity |
| QVQLVESGGGLVQAGGSLRVSCAASGRIFTIYAMGWYRQAPGTEREVVAAISDRGTRTYYADSVKGRFTISRDNAKNTVYVQMNSLKPEDTALYYCATDALYTYGYDYWGQGSQVTVSS | low polyreactivity |
| QVQLVESGGGLVQAGGSLRVSCAASGRIFVDYAMGWYRQAPGKERELVAAISRRGGSTYYADSVKGRFTISRDNAKNTVYLQMNSLKPEDTAVYYCNALVNSGGGYGATEYDYWGQGTQVTVSS | high polyreactivity |
| QVQLVESGGGLVQAGGSLRVSCAASGRILPFYAMGWYRQAPGKERELVATISWTSDSTYYADSVKGRFTISRDNAKNTVSLQMNSLKPEDTAVYYCAREYTYTYASTVIYDHWGQGTQVTVSS | low polyreactivity |
| QVQLVESGGGLVQAGGSLRVSCAASGRSFWTDTMGWYRQAPGKEREFVAAITFGDGSTSYADSVKGRFTISRDNAKNTVYLQMNSLKPEDTAVYYCAKRWRRRFVDVWSLYDYWGQGTQVTVSS | low polyreactivity |
| QVQLVESGGGLVQAGGSLRVSCAASGRTCRYYAMGWYRQEHGTEREWVAVISWSGGTTRYADSVKGRFTISRDNAKNTVYIQMNSLKPEDTAVYYCAARVSVWYNYWGQGTQVTVSS | high polyreactivity |
| QVQLVESGGGLVQAGGSLRVSCAASGRTFARYALAWYRQAPGKERELVAAISRGGTTNYADSVKGRFTISRDNAKNTVYLQMNSLKPEDTAVDYCNRDFHLSHLSSARLDYWGQGTQVTVSS | low polyreactivity |
| QVQLVESGGGLVQAGGSLRVSCAASGRTFGRYAMGWYRQATGKERELVAAISYSGGSTYYADSVKGRFTISRDNAKNNVYLQMNSLKPEDTAVYYCAAYYSGKDGYWGQGTQVTVSS | high polyreactivity |
| QVQLVESGGGLVQAGGSLRVSCAASGRTFWTNAMGWYRQAPGKEREILAAISWRGASTFYADSVKGRFTISRDNAKNTVYLQMNSLKPEDTAVYYCAAQSRTRSFYGKYDSWGQGTQVTVSS | low polyreactivity |
| QVQLVESGGGLVQAGGSLRVSCAASGSIFIRYAMGWYRQAPGKERELVAAIRSSGGSTYADSVKGRFTISRDNAKNTVYLQMISLKPEDTAVYYCAAGRSSKNSYSYPYYYWGQGTQVTVSS | high polyreactivity |
| QVQLVESGGGLVQAGGSLRVSCAASGSIFSYYAMGWYRQAPGKEREFVAAISWSGGSTYYADSVKGRFTISRDNAKNTVYLQMNSLKPEDTAVYYCAAELSLSWLVPDVPYYYWGQGTQVTVSS | low polyreactivity |
| QVQLVESGGGLVQAGGSLRVSCAASGSIFYGNAMGWYRQAPGKARELVAAISNVGRTDYADSVKGRFTISRDNAKPTVYLQMNSLKPEDTADYSCAAGVYSGSNRYYAPRSWFGYYYWGQGTQVTVSS | low polyreactivity |
| QVQLVESGGGLVQAGGSLRVSCAASGSIFYSNAMGWYRQAPGKERELVAAITRRGGSTYYADSVKGRFTISRDIATNPVYLQMNSLIPEDTAVYYCAARSKTSNLFNYWGQGTQVTVSS | high polyreactivity |
| QVQLVESGGGLVQAGGSLRVSCAASGSNFPRYAMGWYRQAPGKERELVAAISGRGGSTYYADSVKGRFTISRDNAKNTVYLQMNSLKPEDTAVYYCNAVGHTSIRRALDILDYWGQGTQVTVSS | high polyreactivity |
| QVQLVESGGGLVQAGGSLRVSCAASGSTFLVYARGWYRQAPGKERELVAAISWSGGSTYYADSVKGRFTISRDNAKKTVYLQMNSLKPEDTAVYYCNAEGIYRQPRGYVYRYDYWGQGTQVTVSS | high polyreactivity |
| QVQLVESGGGLVQAGGSLRVSCAASGSTFRKYAMGWYRQAPGKEREFVAAITSSGGSTYYADSVKGRFTISRDNAKNTLYLQMNSLKPEDTAVYYCAARGDSVSTAYNYWGQGTQVTVSS | high polyreactivity |
| QVQLVESGGGLVQAGGSLRVSCAASGSTFSQYAMGLYRQAPGKEREFVAVITLSVVSTSYADSVKGRFTFSRDNAKNTVYLQMNSQKPEDTAVYYCNKDSGVRGPGYGYWGQGTQVTVSS | low polyreactivity |

From the nanobody polyreactivity screen of Harvey et al. (2022)
